Data from paper PMC2588538, “Structure of Reovirus σ1 in Complex with Its Receptor Junctional Adhesion Molecule-A” (PLoS Pathogens, 2008).

B1: σ1 of reovirus strain rsT3D-σ1T249I (parent), on purified virions [mammalian orthoreovirus, strain type 3 Dearing (T3D)] / GST-JAM-A ectodomain fusion protein [not stated] (parent complex)
chain 1: MDPRLREEVVRLIIALTSDNGASLSKGLESRVSALEKTSQIHSDTILRITQGLDDANKRIIALEQSRDDLVASVSDAQLAISRLESSIGALQTVVNGLDSSVTQLGARVGQLETGLAELRVDHDNLVARVDTAERNIGSLTTELSTLTLRVTSIQADFESRISTLERTAVTSAGAPLSIRNNRMTMGLNDGLTLSGNNLAIRLPGNTGLNIQNGGLQFRFNTDQFQIVNNNLTLKTTVFDSINSRIGAIEQSYVASAVTPLRLNSSTKVLDMLIDSSTLEINSSGQLTVRSTSPNLRYPIADVSGGIGMSPNYRFRQSMWIGIVSYSGSGLNWRVQVNSDIFIVDDYIHICLPAFDGFSIADGGDLSLNFVTGLLPPLLTGDTEPAFHNDVVTYGAQTVAIGLSSGGAPQYMSKNLWVEQWQDGVLRLRVEGGGSITHSNSKWPAMTVSYPRSFT
chain 2: SVTVHSSEPEVRIPENNPVKLSCAYSGFSSPRVEWKFDQGDTTRLVCYNNKITASYEDRVTFLPTGITFKSVTREDTGTYTCMVSEEGGNSYGEVKVKLIVLVPPSKPTVNIPSSATIGNRAVLTCSEQDGSPPSEYTWFKDGIVMPTNPKSTRAFSNSSYVLNPTTGELVFDPLSASDTGEYSCEARNGYGTPMTSNAVRMEAVERNVGV

Variants of: B1
Experiment: SPR; 8×1012 (orange) particles/ml virus; GST-JAM-A captured on biosensor surface; parent: 98; read off a plot

Variant	response [RU]
chain 1 N369A	~25
